# Assay results taken from the RNAGym collection of RNA variant scans (doi:10.1073/pnas.2313332121).
# This sample holds only a part of the variants without activity.
# B1: TPR 5TU (parent)
# chain: GGAUCUUCUCGAUCUAACAAAAAAGACAAAUCUGCCACAAAGCUUGAGAGCAUCUUCGGAUGCAGAGGCGGCAGCCUUCGGUGGCGCGAUAGCGCCAACGUUCUCAACUAUGACACGCAAAACGCGUGCUCCGUUGAAUGGAGUUUAUCAUG
# Variants of: B1
# Assay: polymerase ribozyme fitness, log enrichment relative to wild type (log ratio); higher = more active; in vitro selection for triplet polymerase activity
# Outline: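 Only genotypes with ≥10 input reads and ≥1 read per output were kept after Illumina sequencing of input and output libraries. These libraries were PCR-built, transcribed mutants of each subunit of a heterodimeric triplet polymerase ribozyme, each put through one triplicate in vitro selection round with frozen incubation at −7 °C, gel excision of extended constructs, streptavidin-bead capture and RT-PCR. Fitness is a logarithmic ratio of genotype enrichment to wild-type enrichment, from inverse-variance-weighted replicate averages, with the logarithm in base 2.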
row,Variant,polymerase ribozyme fitness (log ratio)
1,A30U U56A G58C C132A A147U,≤ -4.2
2,C35A G68A C95G C132G,≤ -4.2
3,U31A U78C U146C,-0.876
4,U31A C103U,0.00968
5,G34A U77A G88A,≤ -4.2
6,U31G A52G U55G A98U,-0.355
7,U33C G42A C93U C108U,≤ -4.2
8,U31C A49U G74A G84U G117C G133U A142C,≤ -4.2
9,A30U G83A C95A U135G,≤ -4.2
10,A30U C38G C93U,≤ -4.2
11,G34A U82G C96A C99G,≤ -4.2
12,U33G G58A G86A,-4.02
13,U31G C35A A47C G74U C87G A142C,≤ -4.2
14,A30G A64C A66U C99U U102A G117A U145G,≤ -4.2
15,C32G G46U A47C G59A,-4.03
16,A30G C32G C85G U90C C93G U111G A113U,≤ -4.2
17,A30U G50C G71C A107G,≤ -4.2
18,U31A G86U C99U,-1.18
19,U33G C57G U104G,≤ -4.2
20,C32G U33G G92A C114U,-4.15
21,U33G C96A,-1.72

row,Variant,polymerase ribozyme fitness (log ratio)
1,C32G C108G G140U G141A U145G,≤ -4.2
2,C32G C72G C87A A98G,≤ -4.2
3,G34C C93U A98U,-3.85
4,C32G G42C A47G G59C A91U A107G,≤ -4.2
5,C32G U53G A73C C131A A142G,≤ -4.2
6,U33C C125A,-3.35
7,A30U C32U G50U C51U U82C A106U A119C,≤ -4.2
8,C32G C72G C87G C114U U139A,≤ -4.2
9,C32A U55G C69G,-3.22
10,U33A U55G A73G G83U G86U A89U G136A,≤ -4.2
11,A30U C96U,-3.12
12,C32A G94A,-4
13,U31A C79U,-2.71
14,C35A U55G C57U C93A C96G C118U,≤ -4.2
15,C32A G84A A89G A97G U134A U148A,≤ -4.2
16,U31C U45C A49U G80A C114A U130C U134A,≤ -4.2
17,A30U G68C G81C G94A A98C U104C,≤ -4.2
18,U31G A39G C85U G94C,-3.27
19,A30U U78C G94U A98G G152A,≤ -4.2
20,G34U G48U G59C G67C G81C U134A G141U,≤ -4.2
21,C32G A110C,≤ -4.2

row,Variant,polymerase ribozyme fitness (log ratio)
1,A30G A52C A60C C125U,≤ -4.2
2,C32U A66G A98U,-4.11
3,U31G G34A U61A C85G,≤ -4.2
4,A30U C93U,-3.92
5,C32U C96U C149U U151A,≤ -4.2
6,U31C A41U G48C U55G A89U,-2.77
7,U31A C93A C129U,-2.44
8,U33G C85U U139G,-3.72
9,C32A U56A C103G A107U,≤ -4.2
10,U31A C69A G92U A115U,-3.26
11,C35A C51U G59C A64G G83A,≤ -4.2
12,G34C U56A G128A U135C G140U,≤ -4.2
13,U31G C96U C99U U127G,≤ -4.2
14,U33A G71U C79G C87G C95G,≤ -4.2
15,C32U C36G A39U G59U A120G,-4.07
16,G34A U55G G88U C105A,≤ -4.2
17,C35A A39G,≤ -4.2
18,U31G G46C A60U A73G C76G C79U G92A C93U C96G U135G,≤ -4.2
19,C32A A39G G50U U55A A73U C75A A138U,≤ -4.2
20,A30U G42U G65A G86U A121U,≤ -4.2
21,U33C A47G C93U C103A C132U A137C,≤ -4.2

row,Variant,polymerase ribozyme fitness (log ratio)
1,U33G G42A A49G C95G,≤ -4.2
2,G34A C85A,-3.37
3,U33A C51U C57G C75G C93U C125A G140U,≤ -4.2
4,A30U C95A,-3.34
5,U33A A39U C54U G92A C96G A106U A137G A138C,≤ -4.2
6,A30G A60C G67U G68U G84U G117A U139A,≤ -4.2
7,U31G G92U U127G,-4.07
8,A30G A91U,-4.18
9,C32A A37C C54G G83A C118A G136U A138C G141C U145G,≤ -4.2
10,U33G C36U A60U C87U A91G C108A U109A,≤ -4.2
11,G34U A60C C108G A150C,-4.17
12,G34C G94C,-3.85
13,G34U U55A A60C A73C C85U G136C U144A,≤ -4.2
14,A30U C32A C54U C87A A107U,≤ -4.2
15,A30U U45G G50A A66G A113G G152A,≤ -4.2
16,U31A C116U,-0.00779
17,C35A G65A,-3.77
18,U33A A120U,-4.01
19,U31A A37U U90G C93U C125G G141A,≤ -4.2
20,U31C G34A U56G A60G A73G G84A A89U,≤ -4.2
21,U31G G48U G58A C79A C85U U101G,≤ -4.2
